{"source": "paper PMC11704248", "about": "“Alternative splicing in the DBD linker region of p63 modulates binding to DNA and iASPP in vitro” (Cell Death & Disease, 2025)", "molecules": {"B1": {"name": "p63 DBD (domain or fragment)", "chain": "SPAIPSNTDYPGPHSFDVSFQQSSTAKSATWTYSTELKKLYCQIAKTCPIQIKVMTPPPQGAVIRAMPVYKKAEHVTEVVKRCPNHELSREFNEGQIAPPSHLIRVEGNSHAQYVEDPITGRQSVLVPYEPPQVGTEFTTVLYNFMCNSSCVGGMNRRPILIIVTLETRDGQVLGRRCFEARICACPGRDRKADEDSIRKQ", "modifications": "one Zn2+ bound; start from the paper's DBD constructs (123 + 39 = 162), end from the DNA_BIND feature (362 = paper 323)"}, "B2": {"name": "p73 linker peptide (peptide)", "chain": "NGAASKRAFKQSPP", "modifications": "limits not given; taken as the region aligned to p63 331-344 (p63 K336 = p73 K327)"}, "B3": {"name": "p63 linker peptide (331-344) (peptide)", "peptide": "NGDGTKRPFRQNTH", "notes": "p63 linker region between DBD and OD, residues 331-344; also called p63 peptide (331-344); p63 linker WT"}, "B4": {"name": "p53 linker peptide (peptide)", "chain": "PPGSTKRALPNNTS", "modifications": "limits not given; taken as the region aligned to p63 linker peptide 331-344 (p53 R248 = p63 R279, K305 = K336)"}}, "key": {"[1]": {"molecular_target": "iASPP C-terminal domain (CTD) (UniProt Q8WUF5)", "test": "ITC; peptide titrated to the CTD or SH3 domain; VP-ITC; 25 mM HEPES pH 7.5, 150 mM NaCl, 500 µM TCEP; single-site binding model (AB hetero association)"}, "[2]": {"system": "p63 DBD-TD WT", "test": "ELISA", "details": "ELISA: DPBS, 0.1% Tween-20, 10% Superblock, RT, 1 h; DNA pull-down: 50 mM Tris pH 8.0, 150 mM NaCl, 0.1% Tween-20, 4 C, 3 h"}, "[3]": {"molecular_target": "iASPP SH3 (Homo sapiens) (UniProt Q8WUF5)", "details": "cited from earlier work"}, "[4]": {"molecular_target": "iASPP CTD with N813 and Y814 mutated (UniProt Q8WUF5)", "test": "not stated; affinities of peptides for iASPP CTD shown in Supplementary Fig. S5B, C, E; the text does not name the method"}, "[5]": {"molecular_target": "iASPP CTD (UniProt Q8WUF5)", "test": "ITC; peptide or DBD titrated to ASPP CTD; VP-ITC; 25 mM HEPES pH 7.5, 150 mM NaCl, 500 µM TCEP; AB hetero association (single-site) model"}, "[6]": {"molecular_target": "T1, ASPP2 CTD (UniProt Q13625 925-1128)", "T1 chain": "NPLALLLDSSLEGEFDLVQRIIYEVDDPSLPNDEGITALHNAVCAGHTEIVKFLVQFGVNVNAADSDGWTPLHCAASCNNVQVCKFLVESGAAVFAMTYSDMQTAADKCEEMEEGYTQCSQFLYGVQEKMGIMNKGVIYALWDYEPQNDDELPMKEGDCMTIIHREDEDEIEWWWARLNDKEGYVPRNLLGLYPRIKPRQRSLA", "test": "ITC"}, "[7]": {"molecular_target": "iASPP CTD (UniProt Q8WUF5)", "test": "NMR titration; unlabelled p63 linker peptide (up to 500 µM) with 100 µM 15N-iASPP CTD; 288 K; 25 mM HEPES pH 7.0, 50 mM NaCl, 5 mM DTT; KD from CSPs of selected residues of the SH3 domain, one-site model"}, "[8]": {"molecular_target": "T2, iASPP CTD (UniProt Q8WUF5 625-828)", "T2 chain": "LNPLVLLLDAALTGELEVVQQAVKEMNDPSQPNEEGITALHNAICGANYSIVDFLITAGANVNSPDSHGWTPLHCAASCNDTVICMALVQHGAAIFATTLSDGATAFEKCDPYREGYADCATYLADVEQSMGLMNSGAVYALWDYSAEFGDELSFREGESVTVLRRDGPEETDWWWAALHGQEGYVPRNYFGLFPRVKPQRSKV", "test": "ITC"}, "[9]": {"molecular_target": "T3, iASPP C-terminal domain (CTD) (UniProt Q8WUF5 625-828)", "T3 construct": "iASPP C-terminal domain (four ankyrin repeats and SH3 domain); The limits 625-828 are printed for the CTD in the crystallisation fusion; no separate limits are printed for the CTD used in ITC and NMR; For NMR the same construct was 15N-labelled (M9 medium); also called iASPP CTD; source: E. coli BL21(DE3) Rosetta, purified (IMAC, TEV cleavage, reverse IMAC, ion exchange, SEC); not shown: His10, …", "T3 sequence (looked up)": "T2 chain", "test": "ITC; peptide titrated to the CTD or SH3 domain; VP-ITC; 25 mM HEPES pH 7.5, 150 mM NaCl, 500 µM TCEP; single-site binding model (AB hetero association)", "details": "both partners purified"}, "[10]": {"molecular_target": "T3, iASPP C-terminal domain (CTD)", "test": "ITC; peptide titrated to the CTD or SH3 domain; VP-ITC; 25 mM HEPES pH 7.5, 150 mM NaCl, 500 µM TCEP; single-site binding model (AB hetero association)", "details": "both partners purified", "remark": "listed apart in the source"}, "[11]": {"molecular_target": "T4, iASPP CTD N813A Y814A double mutant (UniProt Q8WUF5 625-828, N813A | Y814A)", "T4 construct": "iASPP C-terminal domain with N813A and Y814A; limits as for the iASPP CTD (amino acids 625-828, printed for the crystallised fusion); also called iASPP NY; N813A Y814A iASPP double mutant; source: E. coli BL21(DE3) Rosetta, purified (IMAC, TEV cleavage, reverse IMAC, ion exchange, SEC); not shown: His10, N-terminal, cleaved", "T4 sequence (looked up)": "T2 chain with N189A, Y190A", "test": "ITC; peptide titrated to the CTD or SH3 domain; VP-ITC; 25 mM HEPES pH 7.5, 150 mM NaCl, 500 µM TCEP; single-site binding model (AB hetero association)", "details": "both partners purified"}, "[12]": {"molecular_target": "T5, iASPP CTD (UniProt Q8WUF5 625-828)", "T5 construct": "iASPP, C-terminal domain (CTD: ankyrin repeats and SH3 domain), amino acids 625-828; In the crystal structure this stretch stood fused behind the p63 peptide; also called iASPP CTD (amino acids 625-828); 15N-labelled iASPP CTD; source: E. coli BL21(DE3) Rosetta, purified (IMAC, TEV cleavage, reverse IMAC, ion exchange, SEC); for NMR grown in M9 minimal medium (15N or 15N,13C labelled); not …", "T5 sequence (looked up)": "T2 chain", "test": "not stated; affinities of peptides for iASPP CTD shown in Supplementary Fig. S5B, C, E; the text does not name the method", "details": "both partners purified"}}, "note": "Residue numbers refer to the chain shown, from its start. Where “and” joins values, the source holds several entries; their conditions need not be identical. Equal entries are not always repeated.", "data": [{"molecule": "p63 linker acK336 peptide", "values": [{"measurement": "Kd", "setting": "[1]", "result": 94.3, "unit": "µM"}]}, {"molecule": "optimized p63 linker peptide (p63opt, 331-344)", "values": [{"measurement": "Kd", "setting": "[1]", "result": 1.65, "unit": "µM"}]}, {"molecule": "p21 promoter RE 20 bp", "values": [{"measurement": "Kd", "setting": "[2]", "result": 115, "unit": "nM"}]}, {"molecule": "iASPP", "values": [{"measurement": "Kd", "setting": "[3]", "result": 45, "unit": "µM"}]}, {"molecule": "p63 linker peptide", "values": [{"measurement": "fold reduction of the affinity against wild-type iASPP CTD", "setting": "[4]", "result": 2, "unit": "fold"}]}, {"molecule": "p63 linker pT335 peptide", "values": [{"measurement": "Kd", "setting": "[1]", "result": 132, "unit": "µM"}]}, {"molecule": "GDGTKRPFRQN", "note": "[p63 linker peptide]", "values": [{"measurement": "Kd", "setting": "[5]", "result": 90, "unit": "µM"}, {"measurement": "Kd", "setting": "[6]", "result": 288, "unit": "µM"}, {"measurement": "Kd", "setting": "[7]", "result": "64 to 105", "unit": "µM"}]}, {"molecule": "B1", "values": [{"measurement": "Kd", "setting": "[6]", "result": 13.6, "unit": "µM"}]}, {"molecule": "B2", "values": [{"measurement": "Kd", "setting": "[6]", "result": 92.9, "unit": "µM"}, {"measurement": "Kd", "setting": "[8]", "result": 33.8, "unit": "µM"}]}, {"molecule": "NPGGRPITPPRNSA (peptide, UniProt P62136 313-326, looked up, also called PP1α (313-326))", "note": "[PP1α peptide (amino acids 313-326)]", "values": [{"measurement": "Kd", "setting": "[9]", "result": 186, "unit": "nM"}]}, {"molecule": "PPGSTKRALPNNTS (limits not given; taken as the region aligned to p63 331-344)", "values": [{"measurement": "Kd", "setting": "[6]", "result": 172, "unit": "µM"}, {"measurement": "Kd", "setting": "[8]", "result": 135, "unit": "µM"}]}, {"molecule": "B3", "values": [{"measurement": "Kd", "setting": "[10]", "result": "148 µM and 70.1 µM"}, {"measurement": "Kd", "setting": "[11]", "result": 186, "unit": "µM"}]}, {"molecule": "B4", "values": [{"measurement": "Kd", "setting": "[10]", "result": 55.2, "unit": "µM"}]}, {"molecule": "GDGPKRPFRQN", "values": [{"measurement": "Kd", "setting": "[12]", "result": 1700, "unit": "nM"}]}]}
